Literature values as cited in PMC10687467.

Key:
[1] = target: LDL receptor (Homo sapiens) (UniProt P01130)
[2] = target: ApoER2 (Homo sapiens) (UniProt Q14114)
[3] = target: LRP-2 (Homo sapiens) (UniProt P98164)
[4] = target: VLDL receptor (Homo sapiens) (UniProt P98155)

Chain of LRPAP1 (P30533 35-357): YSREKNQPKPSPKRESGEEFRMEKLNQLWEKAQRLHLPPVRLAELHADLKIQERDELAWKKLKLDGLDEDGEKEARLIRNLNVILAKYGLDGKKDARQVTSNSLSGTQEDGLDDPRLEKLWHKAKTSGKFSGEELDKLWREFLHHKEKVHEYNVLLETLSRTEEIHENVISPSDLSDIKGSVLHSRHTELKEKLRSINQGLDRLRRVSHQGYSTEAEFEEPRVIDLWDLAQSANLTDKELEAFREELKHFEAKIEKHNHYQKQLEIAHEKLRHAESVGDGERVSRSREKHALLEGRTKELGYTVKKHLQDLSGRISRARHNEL
Chain of LRP-2 (Homo sapiens) (P98164 26-4423): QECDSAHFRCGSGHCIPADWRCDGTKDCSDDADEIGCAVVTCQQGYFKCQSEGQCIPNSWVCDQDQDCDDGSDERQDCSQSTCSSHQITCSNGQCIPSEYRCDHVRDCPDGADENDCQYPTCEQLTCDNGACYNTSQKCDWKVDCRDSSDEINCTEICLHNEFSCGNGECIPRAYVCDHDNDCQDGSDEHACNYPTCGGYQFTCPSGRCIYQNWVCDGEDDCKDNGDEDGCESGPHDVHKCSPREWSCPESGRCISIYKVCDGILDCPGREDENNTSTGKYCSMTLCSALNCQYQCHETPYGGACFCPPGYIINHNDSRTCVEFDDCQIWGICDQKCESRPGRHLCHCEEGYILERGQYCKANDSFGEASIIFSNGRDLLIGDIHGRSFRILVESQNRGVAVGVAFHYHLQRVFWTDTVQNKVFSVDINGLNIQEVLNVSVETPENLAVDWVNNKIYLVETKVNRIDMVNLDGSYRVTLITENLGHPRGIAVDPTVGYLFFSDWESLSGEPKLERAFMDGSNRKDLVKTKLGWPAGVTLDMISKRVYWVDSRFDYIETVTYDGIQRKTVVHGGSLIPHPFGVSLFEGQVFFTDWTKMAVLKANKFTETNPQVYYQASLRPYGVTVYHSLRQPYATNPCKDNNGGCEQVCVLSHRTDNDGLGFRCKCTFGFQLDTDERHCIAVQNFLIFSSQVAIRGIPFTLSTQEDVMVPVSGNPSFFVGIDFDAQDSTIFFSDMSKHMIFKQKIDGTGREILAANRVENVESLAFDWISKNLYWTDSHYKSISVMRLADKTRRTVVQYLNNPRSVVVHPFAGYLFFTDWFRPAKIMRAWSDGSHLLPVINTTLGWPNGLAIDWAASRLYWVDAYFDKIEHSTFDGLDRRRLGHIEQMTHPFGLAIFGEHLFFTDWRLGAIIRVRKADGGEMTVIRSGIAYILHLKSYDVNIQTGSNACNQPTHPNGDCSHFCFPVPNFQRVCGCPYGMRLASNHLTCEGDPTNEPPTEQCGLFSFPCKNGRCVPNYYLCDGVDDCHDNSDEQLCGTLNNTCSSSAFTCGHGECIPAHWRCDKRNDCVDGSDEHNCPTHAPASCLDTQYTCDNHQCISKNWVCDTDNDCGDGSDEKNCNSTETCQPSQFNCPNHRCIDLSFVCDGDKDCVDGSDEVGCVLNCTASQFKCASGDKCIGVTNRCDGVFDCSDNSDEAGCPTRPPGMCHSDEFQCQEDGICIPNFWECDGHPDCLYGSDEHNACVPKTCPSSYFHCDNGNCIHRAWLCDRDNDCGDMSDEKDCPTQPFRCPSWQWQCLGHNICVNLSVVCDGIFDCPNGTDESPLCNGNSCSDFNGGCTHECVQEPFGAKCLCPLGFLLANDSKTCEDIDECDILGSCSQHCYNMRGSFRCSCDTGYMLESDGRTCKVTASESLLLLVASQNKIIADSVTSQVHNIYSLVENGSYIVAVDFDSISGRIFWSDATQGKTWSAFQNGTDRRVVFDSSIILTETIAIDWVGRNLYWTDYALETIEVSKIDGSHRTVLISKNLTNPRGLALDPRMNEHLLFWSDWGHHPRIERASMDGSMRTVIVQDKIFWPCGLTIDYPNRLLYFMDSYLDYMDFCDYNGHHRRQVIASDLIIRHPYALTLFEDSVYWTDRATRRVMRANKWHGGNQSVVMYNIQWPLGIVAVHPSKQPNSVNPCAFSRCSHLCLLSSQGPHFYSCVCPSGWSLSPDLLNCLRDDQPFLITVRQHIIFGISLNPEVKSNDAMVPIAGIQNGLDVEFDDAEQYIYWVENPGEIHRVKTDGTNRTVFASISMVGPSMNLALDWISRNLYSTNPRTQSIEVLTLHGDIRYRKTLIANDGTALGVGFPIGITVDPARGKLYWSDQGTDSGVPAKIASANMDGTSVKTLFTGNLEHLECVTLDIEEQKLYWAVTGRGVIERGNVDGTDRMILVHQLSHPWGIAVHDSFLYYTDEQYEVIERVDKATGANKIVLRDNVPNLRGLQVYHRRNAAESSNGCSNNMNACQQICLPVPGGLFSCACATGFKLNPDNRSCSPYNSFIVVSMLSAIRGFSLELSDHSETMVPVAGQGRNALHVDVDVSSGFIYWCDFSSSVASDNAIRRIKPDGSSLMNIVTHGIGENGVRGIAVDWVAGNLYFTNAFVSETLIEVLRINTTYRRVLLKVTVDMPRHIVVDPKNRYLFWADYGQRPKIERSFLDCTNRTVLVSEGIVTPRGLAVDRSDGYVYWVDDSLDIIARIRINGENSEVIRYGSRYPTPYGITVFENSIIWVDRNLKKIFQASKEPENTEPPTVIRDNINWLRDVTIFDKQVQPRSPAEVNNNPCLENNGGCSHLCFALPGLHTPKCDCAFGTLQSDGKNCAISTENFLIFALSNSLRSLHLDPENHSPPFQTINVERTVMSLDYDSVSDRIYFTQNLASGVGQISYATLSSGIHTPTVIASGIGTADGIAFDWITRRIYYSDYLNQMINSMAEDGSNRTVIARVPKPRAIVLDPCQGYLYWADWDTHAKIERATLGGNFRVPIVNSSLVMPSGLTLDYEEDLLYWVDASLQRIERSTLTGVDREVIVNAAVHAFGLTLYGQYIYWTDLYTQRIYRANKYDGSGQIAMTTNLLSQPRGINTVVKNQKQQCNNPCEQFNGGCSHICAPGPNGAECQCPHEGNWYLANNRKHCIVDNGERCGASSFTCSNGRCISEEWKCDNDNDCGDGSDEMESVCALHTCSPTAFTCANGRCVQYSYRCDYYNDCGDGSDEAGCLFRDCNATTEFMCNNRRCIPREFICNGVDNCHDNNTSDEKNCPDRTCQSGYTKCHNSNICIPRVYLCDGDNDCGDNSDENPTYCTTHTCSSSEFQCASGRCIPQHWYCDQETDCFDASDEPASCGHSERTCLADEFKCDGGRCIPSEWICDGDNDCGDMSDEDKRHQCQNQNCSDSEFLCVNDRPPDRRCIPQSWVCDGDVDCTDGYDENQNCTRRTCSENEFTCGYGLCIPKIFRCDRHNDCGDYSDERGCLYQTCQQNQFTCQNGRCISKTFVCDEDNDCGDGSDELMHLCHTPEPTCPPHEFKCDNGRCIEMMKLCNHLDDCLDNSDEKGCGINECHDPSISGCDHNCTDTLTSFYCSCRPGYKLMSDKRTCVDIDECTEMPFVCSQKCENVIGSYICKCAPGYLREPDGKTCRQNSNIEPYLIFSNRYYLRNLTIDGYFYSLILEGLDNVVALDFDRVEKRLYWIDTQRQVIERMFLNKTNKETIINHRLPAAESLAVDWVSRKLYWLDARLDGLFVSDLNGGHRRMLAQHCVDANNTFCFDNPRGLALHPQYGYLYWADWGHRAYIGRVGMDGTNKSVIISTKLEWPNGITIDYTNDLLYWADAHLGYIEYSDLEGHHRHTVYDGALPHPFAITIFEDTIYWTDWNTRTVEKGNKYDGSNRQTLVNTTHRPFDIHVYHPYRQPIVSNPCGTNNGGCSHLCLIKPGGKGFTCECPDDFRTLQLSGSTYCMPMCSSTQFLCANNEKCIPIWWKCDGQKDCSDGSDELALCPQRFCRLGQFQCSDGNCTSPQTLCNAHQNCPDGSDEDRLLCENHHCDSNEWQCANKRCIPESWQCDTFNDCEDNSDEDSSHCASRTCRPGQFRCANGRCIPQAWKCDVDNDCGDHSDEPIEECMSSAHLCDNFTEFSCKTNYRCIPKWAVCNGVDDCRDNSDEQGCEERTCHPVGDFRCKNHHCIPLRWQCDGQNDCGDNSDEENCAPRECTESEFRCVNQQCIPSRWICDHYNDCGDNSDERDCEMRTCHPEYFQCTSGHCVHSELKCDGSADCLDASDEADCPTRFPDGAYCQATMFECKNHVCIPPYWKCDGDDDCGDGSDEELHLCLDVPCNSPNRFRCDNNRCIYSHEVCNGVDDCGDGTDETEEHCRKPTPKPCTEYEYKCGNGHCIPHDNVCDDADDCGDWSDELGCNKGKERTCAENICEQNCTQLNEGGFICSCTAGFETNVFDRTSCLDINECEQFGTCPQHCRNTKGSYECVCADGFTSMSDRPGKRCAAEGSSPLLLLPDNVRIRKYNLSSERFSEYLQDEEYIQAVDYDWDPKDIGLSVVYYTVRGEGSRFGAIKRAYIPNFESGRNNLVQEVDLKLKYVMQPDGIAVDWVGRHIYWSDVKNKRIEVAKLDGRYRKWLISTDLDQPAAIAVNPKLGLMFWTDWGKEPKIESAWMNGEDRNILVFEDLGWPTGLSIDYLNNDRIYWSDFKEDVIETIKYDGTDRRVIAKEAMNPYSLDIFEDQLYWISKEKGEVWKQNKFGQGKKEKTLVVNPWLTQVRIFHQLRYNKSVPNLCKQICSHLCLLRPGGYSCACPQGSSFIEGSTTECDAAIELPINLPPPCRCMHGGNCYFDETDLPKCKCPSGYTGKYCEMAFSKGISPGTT

- Kd [1]: 250 nM
- Kd [2]: 5 nM
- Kd [3]: 8 nM
- Kd [4]: 0.7 nM
Substance: LRPAP1 (from UniProt P30533)
